# Measurements: US20200223903A1 (NEOMATRIX THERAPEUTICS, published 2020)
# How the values were obtained:
# [1] = target: T1, insulin-like growth factor-1 (UniProt P05019 49-118); assay: SPR (Biacore T200), real time interaction of peptide with growth factor
# T1 construct: also called IGF-1
# Description: (§1) To study the binding activities of these peptides, real time interactions of P12, P46, and cNP8 with growth factors were determined by plasmon surface resonance (Biacore T200).
# epidermal growth factor = target: T2, epidermal growth factor (UniProt P01133 971-1023); assay: as above
# T2 construct: also called EGF
# Description: as §1
# T2 sequence (P01133 971-1023 limits assumed): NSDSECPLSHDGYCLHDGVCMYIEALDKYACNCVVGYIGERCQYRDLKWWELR
# T1 sequence (P05019 49-118 limits assumed): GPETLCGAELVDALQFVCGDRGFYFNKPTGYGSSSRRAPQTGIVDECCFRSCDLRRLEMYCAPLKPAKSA
Binder,binding result [1],binding result (epidermal growth factor)
"HIGKYGLRWRPKGSV (cyclic: N terminus amino acid bound to the C terminus amino acid, also called cyclic NP8) [cNP8, cyclic HIGKYGLRWRPKGSV, elastase-resistant engineered peptide derived from P46]",no binding,no binding
"PSHISKYILRWRPK (Linear P12 as named in the SPR paragraph) [P12 (PSHISKYILRWRPK), 14-residue peptide of fibronectin's first type III repeat]",no binding,no binding
"HISKYILRWRPKNSV (Found as an elastase digestion product of FNIII1-C and then synthesized; Linear) [P46 (HISKYILRWRPKNSV), fibronectin-derived peptide]",no binding,no binding
